Experimental data: US20160312212A1 (published 2016)
Where no end group is shown, it is not given here. The star is where a group is joined. Biotin = O=C1N[C@H]2[C@H](CS[C@H]2CCCCC(=O)*)N1

B1: peptide encoded by linear DNA template 300-53-C (cow antibody scaffold with RDPGRLIFQS and Strep-tag II) (designed binder)
chain: MGCTSVHQETKKYQSRDPGRLIFQSSYTYNYEHVDVWGCGSAWSHPQFEKGS

Tests used:
[1] = biological target: T1, Thrombin (UniProt P00734 328-622); assay: SPR (Biacore multiple cycle kinetics)
[2] = biological target: T1, Thrombin; assay: SPR (Biacore single cycle kinetics)

Binder | Kd [1] [nM] | Kd [2] [nM]
Biotin-GGGGSGGGGSRDPGRLIFQS [Biotin-GGGGSGGGGSRDPGRLIFQS] | 36.6 | 
B1 |  | 0.96
Biotin-GCTSVHQETKKYQSRDPGRLIFQSSYTYNYEHVDVWGCG (designed binder, cysteine pairing not given here) [Biotin-GCTSVHQETKKYQSRDPGRLIFQSSYTYNYEHVDVWGCG] | 0.78 | 
